Target: human IL-21 (human) (UniProt Q9HBE4)
Assay: cell-based or functional assay

Sequence of human IL-21 (human) (Q9HBE4 25-162 limits assumed): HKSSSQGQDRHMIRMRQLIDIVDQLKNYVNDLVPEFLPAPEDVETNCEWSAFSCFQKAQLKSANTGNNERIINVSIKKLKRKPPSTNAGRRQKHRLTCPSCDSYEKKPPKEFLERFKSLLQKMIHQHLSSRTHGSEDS

Question: Which Human IL-21R-BaF3 Neutralization IC50 does the source give for “human IL-21R-Fc (from UniProt Q9HBE5 20-232) (Fc fusion)” here?
Answer: The Human IL-21R-BaF3 Neutralization IC50 was 0.2 nM.
